Residue numbers refer to the chain shown, from its start.

By Kd is commonly meant the equilibrium constant for the complex coming apart. Broadly, the koff is a measure of how fast the partners let go of each other. A word on the kon: it is the rate constant with which the complex forms. As usually defined, the EC50 is the concentration needed to bring the measured effect to its halfway point. Lower therefore signals higher potency in that assay.

B1: 18F5-H10 Fab (Fab, V domains shown)
VH: EVQVVETGGSLVQPGKSLKLTCATSGFTFTNAWMHWVRRSPEKQLEWVAQIKDKSNNYATYYAESVKGRFTISRDDSKSSIYLQMNSLKEEDTAIYYCRYVHYRFAYALDAWGRGTSVSVSS
VL: DVLMTQTPVSLSVSLGGQVSISCRSSQSLVHTNGNTYLSWYLQKPGQSPQLLIYKVSNRLSGISDRFSGSGSGTDFTLKISRVEPDDLGVYYCGQGTHYPFTFGAGTKLELKR
notes: also called BDX-18F5-H10
B2: 4E7-C9 Fab (Fab, V domains shown)
VH: EVQVVETGGSLVQPGKSLKLTCATSGFTFSNAWMHWVRQSPEKQLEWVAQIKDKSNNYATYYAESLKGRFTISRDDPKRSIYLQMNSLREEDTAIYYCRYVHYGIGYAMDAWGQGTSVTVSS
VL: B1 VL with L3V, V30E, T32N, L51P, L60F, H98Q, A105P
notes: also called BDX-4E7-C9
B3: 20G6-F3 Fab (Fab, V domains shown)
VH: EVQLVETGGSLVQPGKSLKLTCATSGFTFTKAWMHWVRQSPEKQLEWVAQIKDKSNSYATYYAESVKGRFTISRDDSKSTIYLQMNSLKEEDTAIYYCRGVYYALSPFDYWGQGVMVTVSS
VL: B1 VL with L3V, T32N, L51S, L60F, I63F, E84D, H98Q, A105S, L111I
notes: also called BDW-20G6-F3
B4: 20E5-F10 Fab (Fab, V domains shown)
VH: EVQLVETGENLVQPGKSLRLTCATSGFSFSNAWMHWIRQSPEKQLEWVAQIKDKSNNYATYYAESVNGRFTISRDDSKSSIYLHMDNLKEEDSAIYYCRYVHYGVRFFYTMDVWGQGTSVTVSS
VL: DVVMTQTPVSLSVSLGDQVSISCRPSQSLVHNNGNTYLSWYLQKPGQSPHPLIYKVSNRFSGISDRFSGSGSGTDFTLKISRVEPDDLGVYYCGQGTQYPFTFGSGTKLEIK
notes: also called 20E5-F10-huFab
B5: 10E6-G6 Fab (Fab, V domains shown)
VH: EVQLVETGGGLVQSGKSLKLTCATSGFTVTNAWMHWVRQSPEKQLEWVAQIKAKSNNYETYYAESVKGRFTISRDDSKSSVYLQMNSLKEEDTAIYYCRGTQYGYNPFDYWGQGVMVTVSS
VL: B4 VL with T7S, D17G, P25S, N35Y, H50Q, P51V, L52F, V83I, Q98H
B6: 12G3-E8 Fab (Fab, V domains shown)
VH: EVRVVETGGSLVQPGKSLKLTCATSGFTFSLAWMHWVRQSPEKKLEWVAQIKDKANNYATYYAESVKGRFTISRDDSKRSVYLQMNRLKEEDTAIYYCRGVYYGFSMTPFDYWGQGVMVTVSS
VL: B4 VL with V3A, D17G, P25S, H50Q, P51V, T74A, S105A, I111L

In one test the target is T1, human CD3ε/δ-Fc fusion protein (soluble recombinant CD3ε/δ complex) (human, UniProt P04234 22-105).
T1 construct: also called huCD3ε/δ; huCD3; not shown: hinge, CH2, CH3 of human IgG with tag
T1 sequence (chain, as listed by the source mutant, chain 1 of 2): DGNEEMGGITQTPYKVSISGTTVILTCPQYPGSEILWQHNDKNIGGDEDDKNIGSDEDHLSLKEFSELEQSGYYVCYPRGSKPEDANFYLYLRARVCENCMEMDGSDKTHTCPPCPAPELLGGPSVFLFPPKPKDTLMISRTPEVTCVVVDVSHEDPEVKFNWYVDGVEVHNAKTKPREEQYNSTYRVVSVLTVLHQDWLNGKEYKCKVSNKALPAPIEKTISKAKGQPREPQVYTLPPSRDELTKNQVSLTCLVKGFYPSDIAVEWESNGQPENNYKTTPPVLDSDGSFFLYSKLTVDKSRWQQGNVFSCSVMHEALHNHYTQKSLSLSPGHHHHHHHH
T1 sequence (P04234 22-105, stated change not applied, chain 2 of 2): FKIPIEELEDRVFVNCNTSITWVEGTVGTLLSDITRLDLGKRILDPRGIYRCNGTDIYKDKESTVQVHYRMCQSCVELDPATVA
Nature of the test: SPR Biacore, Fab. Here is the method: (§1) Binding affinities of anti-CD3 binding Fabs or CODV-Fabs were measured by surface plasmon resonance (SPR) using a Biacore3000 instrument (GE Healthcare). Assay buffer was HBS-EP (BR-1001-88, GE Healthcare). Capture of CD3ε/δ-Fc fusion proteins was achieved using the human antibody capture kit (GE Healthcare). […] The CD3εδ-Fc fusions proteins were captured at 10 μl/min to approx. 70 RU to yield Rmax values of 30 RU. Binding kinetics with the anti-CD3 Fabs or CODV-Fabs was measured at 30 μl/min for 240 sec. and 600 sec. for association and dissociation phase, respectively. Twofold dilutions of Fabs from 3 to 400 nM in assay buffer were used. All Fab concentrations were run in duplicate together with duplicate buffer blanks for double referencing. Regeneration of the capture surface was performed with a 1 min injection of 3M MgCl2 solution at 30 μl/min. For data analysis the BIAevaluation software v.4.1 (GE Healthcare) was used. Data were fit globally using a 1:1 Langmuir model with mass transfer.
A general note: SPR reads the build-up and loss of mass on a sensor chip optically.
B1: the Kd was determined as 1 nM, the koff turned out to be 0.00018 s⁻¹ and the kon was 200000 M⁻¹ s⁻¹.
Regarding B2, the Kd came to 17 nM, the koff is 0.0015 s⁻¹ and the kon stood at 89000 M⁻¹ s⁻¹.
For the molecule B3, the Kd turned out to be 8 nM, the koff came out at 0.00027 s⁻¹ and the on-rate (kon) is 35000 M⁻¹ s⁻¹.

A further test addresses T1, human CD3ε/δ-Fc fusion protein (soluble …). Briefly: SPR, CD3-Fc captured, Fab 100 nM. How it is done:
(§2) Binding was tested by SPR using a BIAcore3000 instrument run with HBS-EP buffer. Recombinant huCD3 proteins (ε/δ (PB01226), ε/γ (PB01225)) were captured at 10 μl/min via Fc-tag by anti-human Fc capture antibody MAB1302 (Millipore) immobilized on a CM5 sensor chip. Anti-CD3 Fabs were used as analytes at 100 nM with association and dissociation times of 240 sec and 300 sec, respectively at 30 μl/min. After each cycle the surfaces were regenerated by a 2 min pulse of 10 mM glycine buffer pH2.5.
Turning to B1, the “RU of Fab binding at 100 nM” value was determined as 13 RU.
On to B2, for which the “RU of Fab binding at 100 nM” value turned out to be 8 RU.
With B3, the “RU of Fab binding at 100 nM” value turned out to be 7 RU.
As to B4, the “RU of Fab binding at 100 nM” value was determined as 11 RU.
Same read-out and setting: with B5 the figure was 11 RU; with B6, 10 RU.

For a further test, the target named is recombinant huCD3ε/γ protein with Fc-tag (PB01225) (human, UniProt P07766 23-126; P09693 23-116). Briefly: SPR, CD3-Fc captured, Fab 100 nM. Here is the method: as §2
Turning to B1, the “RU of Fab binding at 100 nM” value came to 7 RU.
On the same count and under the same terms, the value for B2 was 6 RU; that for B3 was 4 RU; that for B4 was 8 RU.
The same measure, in the same setting: with B5 the figure was 8 RU.
On to B6, for which the “RU of Fab binding at 100 nM” value stood at 7 RU.

For another test, the target named is T2, human CD3ε expressed alone on HEK293F cells (human, UniProt P07766 23-207).
T2 construct: also called huCD3ε
Nature of the test: flow cytometry, transfected HEK293F. How it is done: (§3) To analyze binding of antibodies to human CD3ε and human CD3δ expressed on the surface of cells, HEK293F cells were transfected with both constructs either alone or in co-transfection and signals were measured by flow cytometry. For transfection procedure FuGENE HD Transfection Reagent (Promega, #E2311) was used according to manufacturer's protocol.
(§4) Antibodies for staining were seeded at 1 μg in 50 μl per well Stain Buffer with FBS (BD Pharmingen) in 96-well U-bottom suspension culture plates (Greiner bio-one). Harvested transfected cells were resuspended in Stain Buffer with FBS and were added at 50 μl per well to the antibodies. Cells were incubated at 4° C. in the dark for 30 min and were washed twice. 0.5 μg secondary antibody Goat F(ab′)2 Anti-Human IgG-FITC (Beckman Coulter, #732598) or Goat F(ab′)2 Anti-Human kappa-PE (Southern Biotech, #206209), respectively, in combination with 0.5 μg 7-AAD per well was added in 100 μl Stain Buffer with FBS. Cells were incubated at 4° C. in the dark for 15 min and were washed twice. For measurement, cells were resuspended in 200 μl Stain Buffer with FBS. Cells were measured using the MACSQuant (Miltenyi Biotec) or LSRII (BD) flow cytometer, respectively. Further data analyses were performed using the FlowJo software (Tree Star, Inc.).
For orientation: In flow cytometry, cells or beads pass a laser one at a time.
For B1, the “% antibody positive transfected cells” value came out at 70.6%.
For the molecule B2, the “% antibody positive transfected cells” value was 69%.
Regarding B3, the “% antibody positive transfected cells” value stood at 68.6%.
As to B4, the “% antibody positive transfected cells” value was determined as 96.7%.
Consider B5, for which the “% antibody positive transfected cells” value is 96.3%.
Same read-out and setting: with B6 the figure was 96.3%.

A further test addresses T3, human CD3ε and CD3δ co-expressed on HEK293F cells (human, UniProt P07766 23-207; P04234 22-171).
T3 construct: also called huCD3ε/δ (transfected cells); huCD3e + huCD3d
Nature of the test: flow cytometry, transfected HEK293F. Here is the method:
as §3, §4
On to B1, for which the “% antibody positive transfected cells” value was determined as 70.4%.
On the same count and under the same terms, with B2 the figure was 66.4%; with B3, 67.4%; with B4, 95.3%.
Turning to B5, the “% antibody positive transfected cells” value amounted to 93.3%.
Take B6: the “% antibody positive transfected cells” value is 96.7%.

For another test, the target named is T4, human CD3 (TCR complex) on primary human T cells or Jurkat cells (human, UniProt P07766 23-207).
T4 construct: on the cells it stands in the whole TCR/CD3 complex; also called Jurkat E6-1 (expressing human TCR)
Nature of the test: flow cytometry, primary human T cells. Here is the method: The binding capacity of the CD3-Fabs was determined by flow cytometry. Primary human T cells were used as target cells. Therefore, peripheral blood mononuclear cells (PBMCs) were isolated from 200 ml peripheral blood of healthy donors treated with EDTA by Ficoll density centrifugation. 15 ml Histopaque (Sigma-Aldrich) was preloaded on a 50 ml Leucosep-Tube (Greiner bio-one). Blood was diluted with autoMACS Rinsing Buffer+1% BSA (Miltenyi Biotec) and loaded on the membrane of a total of ten prepared tubes. Tubes were centrifuged without brake for 10 min at 1000 xg. PBMCs were collected and washed with autoMACS Rinsing Buffer+1% BSA three times. Finally, PBMCs were resuspended in autoMACS Running Buffer (Miltenyi Biotec) for isolation of T lymphocytes by autoMACSpro technology using the Pan T Cell isolation Kit (Miltenyi Biotec) according to manufacturer's instructions. Purity of separated T cells was analyzed by MACSQuant flow cytometry using the human 7-Color Immunophenotyping Kit (Miltenyi Biotec). Isolated T cells were resuspended in Stain Buffer with FBS (BD Pharmingen) and 1E5 cells in 100 μl per well were seeded in 96-well U-bottom suspension culture plates (Greiner bio-one). Fab antibodies were diluted 1:3 in serial in PBS (Invitrogen) and 5 μl each were added to the cells at a final maximum concentration of 30000 ng/ml. The assay was incubated for 45 min at 4° C. Cells were washed twice with Stain Buffer with FBS and 1 μg secondary antibody Goat F(ab′)2 Anti-Human kappa-FITC (Beckman Coulter, #732621) per well was added in 100 μl Stain Buffer with FBS per well. The assay was incubated for 20 min at 4° C. and washed twice afterwards. Cells were resuspended in 150 μl Stain Buffer with FBS per well and were measured using the MACSQuant (Miltenyi Biotec) or LSRII (BD) flow cytometer. Further data analyses were performed using the FlowJo software (Tree Star, Inc.). Read out was percentage of cells positive for antibody binding. Cells treated only with the secondary but no primary antibody were used to set the gates. EC50 Curves were calculated by XLfit (Algorithm 205), EC50 values were calculated as inflection point of the slope (data are shown in table 6).
B1: it took 4.1 nM to reach a half-maximal effect (EC50).
Same read-out and setting: the value for B2 was 6.2 nM.
For B3, the EC50 came to 14 nM.
With B4, the EC50 was 8.2 nM.
Regarding B5, the 50% effective concentration (EC50) was determined as 4.7 nM.
In turn, B6 gave an EC50 of 4.4 nM.

In another test the target is T1, human CD3ε/δ-Fc fusion protein (soluble …). Nature of the test: SPR Biacore, CD3εδ-Fc captured, Fab analyte. Here is the method:
as §1
B1: the Kd was determined as 0.89 nM, the koff worked out at 0.00018 s⁻¹ and the kon came out at 200000 M⁻¹ s⁻¹.
As to B2, the Kd worked out at 17 nM, the koff was determined as 0.0016 s⁻¹ and the kon was found to be 89000 M⁻¹ s⁻¹.
For B3 the same measures were 7.7 nM, 0.00027 s⁻¹ and 35000 M⁻¹ s⁻¹.
Consider B4, for which the Kd amounted to 4.3 nM, the koff is 0.00043 s⁻¹ and the on-rate (kon) was found to be 99000 M⁻¹ s⁻¹.
In the case of B5, the Kd came to 14 nM, the koff was 0.002 s⁻¹ and the on-rate constant (kon) worked out at 140000 M⁻¹ s⁻¹.
For B6, the Kd came out at 9.3 nM, the off-rate constant (koff) turned out to be 0.0011 s⁻¹ and the kon came to 110000 M⁻¹ s⁻¹.

The target of a further test is T5, human CD3δ expressed alone on HEK293F cells (human, UniProt P04234 22-171).
T5 construct: entry includes the signal peptide; also called huCD3δ
T5 sequence (P04234 22-171 limits assumed, stated change not applied): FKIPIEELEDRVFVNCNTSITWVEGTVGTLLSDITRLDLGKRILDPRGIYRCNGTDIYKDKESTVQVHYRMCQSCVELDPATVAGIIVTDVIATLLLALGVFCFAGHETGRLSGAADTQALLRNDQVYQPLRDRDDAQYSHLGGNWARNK
Briefly: flow cytometry, HEK293F transfected with huCD3δ. How it is done: as §3
Cells were incubated on a shaker at 37° C. and 5% CO2. At day one to three after transfection cells were harvested and binding of antibodies was analyzed by flow cytometry.
as §4
On to B1, for which the binding result was “no binding (tested: <20% of binding of huCD3e + huCD3d)”.
Turning to B2, the binding result is “no binding (tested: <20% of binding of huCD3e + huCD3d)”.
B3: the binding result was “no binding (tested: <20% of binding of huCD3e + huCD3d)”.
For B4, the binding result was “no binding (tested: <20% of binding of huCD3e + huCD3d)”.
With B5, the binding result is “no binding (tested: <20% of binding of huCD3e + huCD3d)”.
With B6, the binding result was “no binding (tested: <20% of binding of huCD3e + huCD3d)”.

Values taken from patent publication US20210292423A1 (published 2021).
